For test [1], the target named is human SLBP RNA binding domain, phosphorylated at Thr171, baculovirus expressed (human). Description: electrospray mass spectrometry.
The target in test [2] is human SLBP (hSLBP), Stem-Loop Binding Protein RNA binding domain (RBD/RPD) (UniProt Q14493). Put plainly: mass spectrometry of oligomer peaks. The settings on record: reference: bacterially expressed unphosphorylated RBD; sites T171.
Test [3] concerns the target human SLBP RNA binding domain, unphosphorylated, bacterially expressed (human). Description: MALDI-TOF mass spectrometry.

In test [1], “human SLBP RNA binding domain, phosphorylated at Thr171, baculovirus expressed (domain or fragment)” yielded a percent of the mass spectrum as dimer of 5.6%, a percent of the mass spectrum as tetramer of 3.8% and a percent of the mass spectrum as trimer of 3.9%.
Turning to “human SLBP (hSLBP), Stem-Loop Binding Protein RNA binding domain (RBD/RPD) (from UniProt Q14493) baculovirus-expressed phosphorylated RBD”, the “other: percent of mass as dimer” value in test [2] is recorded as “weaker; reference 35.3”.
For the substance “human SLBP RNA binding domain, unphosphorylated, bacterially expressed (domain or fragment)”, in test [3], the percent of the mass spectrum as dimer came to 35.3%, the percent of the mass spectrum as hexamer came to 9.7%, the percent of the mass spectrum as tetramer was found to be 12.4% and the percent of the mass spectrum as trimer was determined as 9.9%.

The record behind these values is PMC3580866.
